Results reported in publication PMC6555819, “Comprehensive study of nuclear receptor DNA binding provides a revised framework for understanding receptor specificity”.

What follows are binders tested against RARg:RXRa (Homo sapiens, UniProt P13631;P19793 full;full) (assay: no ligand; PBM; 270 nM : 90 nM RXRa; PBS pH 7.4, 2% milk, 0.02% Triton X-100, 1 mM DTT, BSA, 0.4 mg/ml salmon testes DNA). Settings: tags: His kept;His cleaved; copies: 1;1; label: surface-attached array probe.
Method in brief: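 Scanned fluorescence from custom Agilent 4×180K protein-binding microarrays was regression-normalized. Binding z-scores use random background probes as reference. Ligand-free nuclear receptor dimers were incubated on the arrays for 1 h and detected with antibodies against each partner (one per run).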

Chain of RARg:RXRa (P13631 whole entry, chain 1 of 2): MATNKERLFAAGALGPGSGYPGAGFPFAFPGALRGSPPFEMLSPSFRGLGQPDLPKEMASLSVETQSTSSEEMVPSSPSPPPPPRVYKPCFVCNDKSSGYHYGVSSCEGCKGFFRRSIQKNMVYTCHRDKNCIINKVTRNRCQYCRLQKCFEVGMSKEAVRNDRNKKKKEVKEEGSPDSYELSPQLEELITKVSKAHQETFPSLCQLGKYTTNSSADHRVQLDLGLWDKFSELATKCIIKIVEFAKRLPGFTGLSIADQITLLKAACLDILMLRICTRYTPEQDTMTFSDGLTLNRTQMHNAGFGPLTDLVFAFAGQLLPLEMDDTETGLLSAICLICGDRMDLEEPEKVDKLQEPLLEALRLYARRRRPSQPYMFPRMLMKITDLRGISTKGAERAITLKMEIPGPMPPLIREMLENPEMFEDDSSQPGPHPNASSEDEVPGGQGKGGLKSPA
Chain of RARg:RXRa (P19793 whole entry, chain 2 of 2): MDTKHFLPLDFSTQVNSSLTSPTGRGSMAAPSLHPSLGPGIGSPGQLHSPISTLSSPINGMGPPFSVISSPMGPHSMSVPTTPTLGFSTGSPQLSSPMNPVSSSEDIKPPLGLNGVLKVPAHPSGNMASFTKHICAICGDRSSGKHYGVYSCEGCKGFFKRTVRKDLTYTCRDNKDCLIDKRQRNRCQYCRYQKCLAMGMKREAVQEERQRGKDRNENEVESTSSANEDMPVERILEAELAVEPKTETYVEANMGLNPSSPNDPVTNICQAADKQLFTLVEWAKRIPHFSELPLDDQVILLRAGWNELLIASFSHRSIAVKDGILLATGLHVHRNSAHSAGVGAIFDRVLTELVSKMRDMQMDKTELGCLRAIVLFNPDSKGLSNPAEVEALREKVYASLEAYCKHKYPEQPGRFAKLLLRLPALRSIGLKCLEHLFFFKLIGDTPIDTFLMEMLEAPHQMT

Binder | binding signal
NRC3_wobSeed87_DR3_C17G_o1 (dsDNA) DNA 1: GCCGAACTAGGTCATCGAGGACAGTGAATACATTGAGCGATTGACAGCGTAGAATGAAGG DNA 2: CCTTCATTCTACGCTGTCAATCGCTCAATGTATTCACTGTCCTCGATGACCTAGTTCGGC | 4.03 PBM z-score against 500 random probes
NRC3_wobSeed88_DR3_T25C_o1 (dsDNA) DNA 1: GCTAGCCTAGGTCATGCGGGCCAGCATAGTGTCGGCGCGATTGACAGCGTAGAATGAAGG DNA 2: CCTTCATTCTACGCTGTCAATCGCGCCGACACTATGCTGGCCCGCATGACCTAGGCTAGC | 3.97 PBM z-score against 500 random probes
NRC3_wobSeed88_DR3_A4G_o1 (dsDNA) DNA 1: GCTGGCCTAGGTCATGCGGGCCAGTATAGTGTCGGCGCGATTGACAGCGTAGAATGAAGG DNA 2: CCTTCATTCTACGCTGTCAATCGCGCCGACACTATACTGGCCCGCATGACCTAGGCCAGC | 3.93 PBM z-score against 500 random probes
NRC3_wobSeed123_DR5_A17C_o1 (dsDNA) DNA 1: GCCCTCGGAGGACAACCGGAGGTCAGAGCTGCCAGAGCGATTGACAGCGTAGAATGAAGG DNA 2: CCTTCATTCTACGCTGTCAATCGCTCTGGCAGCTCTGACCTCCGGTTGTCCTCCGAGGGC | 3.83 PBM z-score against 500 random probes
NRC3_wobSeed101_DR4_A24C_o1 (dsDNA) DNA 1: GCCCTTACGGGTCACTCCAGGTTCTAGCATCGGAGTGCGATTGACAGCGTAGAATGAAGG DNA 2: CCTTCATTCTACGCTGTCAATCGCACTCCGATGCTAGAACCTGGAGTGACCCGTAAGGGC | 4.14 PBM z-score against 500 random probes
NRC3_wobSeed141_DR5_A25C_o1 (dsDNA) DNA 1: GCAGTCAAAGTTCAGGACGAGGTACCGTAAAGCACGGCGATTGACAGCGTAGAATGAAGG DNA 2: CCTTCATTCTACGCTGTCAATCGCCGTGCTTTACGGTACCTCGTCCTGAACTTTGACTGC | 4.17 PBM z-score against 500 random probes
NRC3_wobSeed39_DR1_T23G_o1 (dsDNA) DNA 1: GCCGAACTAGGTCAAAGGACAGGGAAAGGCGACGTAGCGATTGACAGCGTAGAATGAAGG DNA 2: CCTTCATTCTACGCTGTCAATCGCTACGTCGCCTTTCCCTGTCCTTTGACCTAGTTCGGC | 4.06 PBM z-score against 500 random probes
NRC3_wobSeed74_DR3_C13G_o1 (dsDNA) DNA 1: GCTCTAGTTGGTGACGGAGGTCACACACGACGGGTAGCGATTGACAGCGTAGAATGAAGG DNA 2: CCTTCATTCTACGCTGTCAATCGCTACCCGTCGTGTGTGACCTCCGTCACCAACTAGAGC | 3.87 PBM z-score against 500 random probes
NRC3_wobSeed4_DR0_T25G_o1 (dsDNA) DNA 1: GCCCTACTGGGCCAAGGTCATTGAGCAGTCAAAGCAGCGATTGACAGCGTAGAATGAAGG DNA 2: CCTTCATTCTACGCTGTCAATCGCTGCTTTGACTGCTCAATGACCTTGGCCCAGTAGGGC | 3.95 PBM z-score against 500 random probes
NRC3_wobSeed15_DR0_G16C_o1 (dsDNA) DNA 1: GCCGAACTAGGTCAACGACAGTGAATCTCCGCACGCGCGATTGACAGCGTAGAATGAAGG DNA 2: CCTTCATTCTACGCTGTCAATCGCGCGTGCGGAGATTCACTGTCGTTGACCTAGTTCGGC | 3.81 PBM z-score against 500 random probes
NRC3_wobSeed64_DR2_o1 (dsDNA) DNA 1: GCTAGCCTAGGTCATTGGGCCAGTATAGTACGCATCGCGATTGACAGCGTAGAATGAAGG DNA 2: CCTTCATTCTACGCTGTCAATCGCGATGCGTACTATACTGGCCCAATGACCTAGGCTAGC | 3.78 PBM z-score against 500 random probes
NRC3_wobSeed82_DR3_T4A_o1 (dsDNA) DNA 1: GCAACGAAAGGTCGACGAGGTGAGTATACACCGTTTGCGATTGACAGCGTAGAATGAAGG DNA 2: CCTTCATTCTACGCTGTCAATCGCAAACGGTGTATACTCACCTCGTCGACCTTTCGTTGC | 4.09 PBM z-score against 500 random probes
NRC3_wobSeed82_DR3_T21A_o1 (dsDNA) DNA 1: GCATCGAAAGGTCGACGAGGAGAGTATACACCGTTTGCGATTGACAGCGTAGAATGAAGG DNA 2: CCTTCATTCTACGCTGTCAATCGCAAACGGTGTATACTCTCCTCGTCGACCTTTCGATGC | 4.02 PBM z-score against 500 random probes
